In PMC9482650, “Quantitative fragmentomics allow affinity mapping of interactomes” (Nature Communications, 2022):

Legend:
Experiment in all cases: holdup assay
Design in all cases: key: below the threshold = too weak to quantify, mostly under pKd 3.1 to 4
Conditions in all cases: plain residues with an end cap or a label only (N-terminal biotin on a linker: ado-ado)
APBA1_1, Q02410 = molecular target: T1, APBA1_1, Q02410
T1 sequence (Q02410 651-752, limits assumed, looked up): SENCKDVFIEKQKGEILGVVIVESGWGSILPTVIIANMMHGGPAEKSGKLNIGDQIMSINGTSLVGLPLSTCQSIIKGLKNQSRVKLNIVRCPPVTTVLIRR

APBA2_1, Q99767 = molecular target: T2, APBA2_1, Q99767
T2 sequence (Q99767 563-664, limits assumed, looked up): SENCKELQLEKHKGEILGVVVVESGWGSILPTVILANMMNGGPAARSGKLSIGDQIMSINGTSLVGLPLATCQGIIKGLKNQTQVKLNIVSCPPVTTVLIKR

APBA2_2, Q99767 = molecular target: T3, APBA2_2, Q99767
T3 sequence (Q99767 654-744, limits assumed, looked up): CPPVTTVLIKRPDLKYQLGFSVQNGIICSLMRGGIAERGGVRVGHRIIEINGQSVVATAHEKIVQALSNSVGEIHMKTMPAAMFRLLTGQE

ARHGEF12, Q9NZN5-2 = molecular target: ARHGEF12, Q9NZN5-2
Sequence of ARHGEF12, Q9NZN5-2 (Q9NZN5 other isoform, or with tags, fused parts or gaps): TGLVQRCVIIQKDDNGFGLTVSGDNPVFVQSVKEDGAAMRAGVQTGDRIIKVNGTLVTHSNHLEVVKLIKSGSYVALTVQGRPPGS

DLG1_3, Q12959 = molecular target: DLG1_3, Q12959
Sequence of DLG1_3, Q12959 (Q12959 457-571): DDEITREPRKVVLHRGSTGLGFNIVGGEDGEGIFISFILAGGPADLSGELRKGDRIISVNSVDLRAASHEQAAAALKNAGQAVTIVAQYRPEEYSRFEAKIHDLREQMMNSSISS

DLG3_1, Q92796 = molecular target: T4, DLG3_1, Q92796
T4 sequence (Q92796 125-227, limits assumed, looked up): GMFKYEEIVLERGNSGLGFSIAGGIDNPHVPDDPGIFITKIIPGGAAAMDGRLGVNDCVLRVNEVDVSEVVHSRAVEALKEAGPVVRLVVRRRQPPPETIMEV

DLG3_2, Q92796 = molecular target: T5, DLG3_2, Q92796
T5 sequence (Q92796 221-321, limits assumed, looked up): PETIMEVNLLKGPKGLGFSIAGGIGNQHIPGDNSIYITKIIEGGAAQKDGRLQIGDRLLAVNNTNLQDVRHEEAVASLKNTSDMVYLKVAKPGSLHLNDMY

FRMPD3, Q5JV73 = molecular target: FRMPD3, Q5JV73
Sequence of FRMPD3, Q5JV73 (Q5JV73 12-100): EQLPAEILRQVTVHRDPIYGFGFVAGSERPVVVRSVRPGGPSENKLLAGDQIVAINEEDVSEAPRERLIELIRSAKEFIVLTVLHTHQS

GRASP, Q7Z6J2 = molecular target: GRASP, Q7Z6J2
Sequence of GRASP, Q7Z6J2 (Q7Z6J2 96-193): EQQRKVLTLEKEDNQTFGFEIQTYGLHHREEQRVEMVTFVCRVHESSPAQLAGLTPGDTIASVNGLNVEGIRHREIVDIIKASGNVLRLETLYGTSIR

GRIP2_7, Q9C0E4 = molecular target: GRIP2_7, Q9C0E4
Sequence of GRIP2_7, Q9C0E4 (Q9C0E4 934-1023): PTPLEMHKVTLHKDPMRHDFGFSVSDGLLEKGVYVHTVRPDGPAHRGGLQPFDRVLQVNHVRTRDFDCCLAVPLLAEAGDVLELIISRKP

HTRA2, O43464 = molecular target: HTRA2, O43464
Sequence of HTRA2, O43464 (O43464 355-458): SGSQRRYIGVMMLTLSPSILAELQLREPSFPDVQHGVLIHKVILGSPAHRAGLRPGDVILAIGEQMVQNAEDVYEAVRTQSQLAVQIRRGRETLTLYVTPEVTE

Inadl_10, Q8NI35 = molecular target: Inadl_10, Q8NI35
Sequence of Inadl_10, Q8NI35 (Q8NI35 1673-1763): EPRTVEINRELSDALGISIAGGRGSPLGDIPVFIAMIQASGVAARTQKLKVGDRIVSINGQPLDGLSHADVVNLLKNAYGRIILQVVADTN

Inadl_9, Q8NI35 = molecular target: Inadl_9, Q8NI35
Sequence of Inadl_9, Q8NI35 (Q8NI35 1530-1615): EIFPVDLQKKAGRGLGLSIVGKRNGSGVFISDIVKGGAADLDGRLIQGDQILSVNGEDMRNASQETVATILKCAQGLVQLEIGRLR

LIMK2, P53671 = molecular target: LIMK2, P53671
Sequence of LIMK2, P53671 (P53671 143-248): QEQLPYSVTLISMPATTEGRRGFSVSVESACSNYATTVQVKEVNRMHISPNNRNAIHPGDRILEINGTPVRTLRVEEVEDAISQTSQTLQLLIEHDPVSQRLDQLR

LIN7A, O14910 = molecular target: T6, LIN7A, O14910
T6 sequence (O14910 103-200, limits assumed, looked up): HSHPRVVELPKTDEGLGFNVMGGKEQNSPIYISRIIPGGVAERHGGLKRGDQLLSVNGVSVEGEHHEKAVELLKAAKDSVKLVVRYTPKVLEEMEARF

LIN7C, Q9NUP9 = molecular target: T7, LIN7C, Q9NUP9
T7 sequence (Q9NUP9 88-185, limits assumed, looked up): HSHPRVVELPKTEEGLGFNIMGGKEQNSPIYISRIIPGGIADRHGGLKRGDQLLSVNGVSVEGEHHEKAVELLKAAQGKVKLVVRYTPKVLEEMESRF

LNX1_1, Q8TBB1 = molecular target: LNX1_1, Q8TBB1
Sequence of LNX1_1, Q8TBB1 (Q8TBB1 261-371): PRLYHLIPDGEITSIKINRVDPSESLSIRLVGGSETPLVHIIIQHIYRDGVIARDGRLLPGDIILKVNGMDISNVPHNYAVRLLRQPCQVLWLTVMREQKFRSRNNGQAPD

LNX1_2, Q8TBB1 = molecular target: LNX1_2, Q8TBB1
Sequence of LNX1_2, Q8TBB1 (Q8TBB1 371-470): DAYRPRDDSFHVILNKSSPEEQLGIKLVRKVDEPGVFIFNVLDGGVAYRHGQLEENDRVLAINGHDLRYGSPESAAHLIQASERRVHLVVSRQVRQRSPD

MAGI2_6, Q86UL8 = molecular target: MAGI2_6, Q86UL8
Sequence of MAGI2_6, Q86UL8 (Q86UL8 1141-1229): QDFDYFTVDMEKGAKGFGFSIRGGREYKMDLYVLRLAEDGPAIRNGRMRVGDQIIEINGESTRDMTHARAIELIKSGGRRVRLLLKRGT

MAGI3_2, Q5TCQ9 = molecular target: MAGI3_2, Q5TCQ9
Sequence of MAGI3_2, Q5TCQ9 (Q5TCQ9 398-503): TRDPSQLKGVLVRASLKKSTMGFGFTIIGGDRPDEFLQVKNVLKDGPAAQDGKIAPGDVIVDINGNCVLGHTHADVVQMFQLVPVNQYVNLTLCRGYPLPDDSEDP

PARD3B_1, Q8TEW8 = molecular target: T8, PARD3B_1, Q8TEW8
T8 sequence (Q8TEW8 196-299, limits assumed, looked up): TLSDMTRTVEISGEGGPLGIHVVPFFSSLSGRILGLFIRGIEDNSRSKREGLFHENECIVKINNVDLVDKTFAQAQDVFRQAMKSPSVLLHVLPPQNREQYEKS

PCLO, Q9Y6V0 = molecular target: T9, PCLO, Q9Y6V0
T9 sequence (Q9Y6V0 4491-4600, limits assumed, looked up): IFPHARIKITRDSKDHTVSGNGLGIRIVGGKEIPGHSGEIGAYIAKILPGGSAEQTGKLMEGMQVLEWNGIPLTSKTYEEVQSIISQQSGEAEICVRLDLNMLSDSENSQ

RAPGEF6, Q8TEU7 = molecular target: T10, RAPGEF6, Q8TEU7
T10 sequence (Q8TEU7 525-625, limits assumed, looked up): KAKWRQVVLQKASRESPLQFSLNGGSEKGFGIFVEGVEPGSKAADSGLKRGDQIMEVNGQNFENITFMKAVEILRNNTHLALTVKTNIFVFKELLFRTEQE

SNTG2, Q9NY99 = molecular target: T11, SNTG2, Q9NY99
T11 sequence (Q9NY99 68-166, limits assumed, looked up): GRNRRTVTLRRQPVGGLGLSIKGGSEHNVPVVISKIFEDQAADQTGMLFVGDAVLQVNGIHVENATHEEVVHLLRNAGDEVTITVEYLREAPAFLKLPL

TX1BP3, O14907 = molecular target: T12, TX1BP3, O14907
T12 sequence (O14907 10-122, limits assumed, looked up): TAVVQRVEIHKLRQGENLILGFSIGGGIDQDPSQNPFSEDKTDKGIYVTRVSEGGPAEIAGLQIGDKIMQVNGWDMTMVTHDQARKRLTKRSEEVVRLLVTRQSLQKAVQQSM

B1: TMEM178A, Q8NBL3 (peptide)
chain: QLKSGRDSTV
pKd (APBA1_1, Q02410): below the threshold
pKd (APBA2_1, Q99767): 3.52
pKd (APBA2_2, Q99767): below the threshold
pKd (ARHGEF12, Q9NZN5-2): below the threshold
pKd (DLG1_3, Q12959): 3.85
pKd (DLG3_1, Q92796): 3.82
pKd (DLG3_2, Q92796): 4.35
pKd (FRMPD3, Q5JV73): below the threshold
pKd (GRASP, Q7Z6J2): 3.56
pKd (GRIP2_7, Q9C0E4): 3.55
pKd (HTRA2, O43464): 3.65
pKd (Inadl_10, Q8NI35): below the threshold
pKd (Inadl_9, Q8NI35): 3.52
pKd (LIMK2, P53671): below the threshold
pKd (LIN7A, O14910): below the threshold
pKd (LIN7C, Q9NUP9): 4.13
pKd (LNX1_1, Q8TBB1): below the threshold
pKd (LNX1_2, Q8TBB1): 3.84
pKd (MAGI2_6, Q86UL8): 3.85
pKd (MAGI3_2, Q5TCQ9): 4.12
pKd (PARD3B_1, Q8TEW8): below the threshold
pKd (PCLO, Q9Y6V0): below the threshold
pKd (RAPGEF6, Q8TEU7): below the threshold
pKd (SNTG2, Q9NY99): 3.77
pKd (TX1BP3, O14907): 3.91

B2: CLDN20, P56880 (peptide)
chain: NSTHNLKDYV
pKd (APBA1_1, Q02410): below the threshold
pKd (APBA2_1, Q99767): below the threshold
pKd (APBA2_2, Q99767): below the threshold
pKd (ARHGEF12, Q9NZN5-2): below the threshold
pKd (DLG1_3, Q12959): below the threshold
pKd (DLG3_1, Q92796): below the threshold
pKd (DLG3_2, Q92796): below the threshold
pKd (FRMPD3, Q5JV73): below the threshold
pKd (GRASP, Q7Z6J2): 3.47
pKd (GRIP2_7, Q9C0E4): below the threshold
pKd (HTRA2, O43464): below the threshold
pKd (Inadl_10, Q8NI35): below the threshold
pKd (Inadl_9, Q8NI35): 3.66
pKd (LIMK2, P53671): below the threshold
pKd (LIN7A, O14910): below the threshold
pKd (LIN7C, Q9NUP9): below the threshold
pKd (LNX1_1, Q8TBB1): below the threshold
pKd (LNX1_2, Q8TBB1): below the threshold
pKd (MAGI2_6, Q86UL8): below the threshold
pKd (MAGI3_2, Q5TCQ9): below the threshold
pKd (PARD3B_1, Q8TEW8): below the threshold
pKd (PCLO, Q9Y6V0): below the threshold
pKd (RAPGEF6, Q8TEU7): below the threshold
pKd (SNTG2, Q9NY99): below the threshold
pKd (TX1BP3, O14907): below the threshold

B3: SLC15A2, Q16348 (peptide)
chain: IKLETKKTKL
pKd (APBA1_1, Q02410): below the threshold
pKd (APBA2_1, Q99767): 3.5
pKd (APBA2_2, Q99767): 3.52
pKd (ARHGEF12, Q9NZN5-2): 4.69
pKd (DLG1_3, Q12959): 3.97
pKd (DLG3_1, Q92796): 3.69
pKd (DLG3_2, Q92796): below the threshold
pKd (FRMPD3, Q5JV73): below the threshold
pKd (GRASP, Q7Z6J2): 4.42
pKd (GRIP2_7, Q9C0E4): below the threshold
pKd (HTRA2, O43464): 3.52
pKd (Inadl_10, Q8NI35): below the threshold
pKd (Inadl_9, Q8NI35): below the threshold
pKd (LIMK2, P53671): below the threshold
pKd (LIN7A, O14910): below the threshold
pKd (LIN7C, Q9NUP9): below the threshold
pKd (LNX1_1, Q8TBB1): 3.79
pKd (LNX1_2, Q8TBB1): below the threshold
pKd (MAGI2_6, Q86UL8): below the threshold
pKd (MAGI3_2, Q5TCQ9): 3.49
pKd (PARD3B_1, Q8TEW8): 3.77
pKd (PCLO, Q9Y6V0): below the threshold
pKd (RAPGEF6, Q8TEU7): 3.48
pKd (SNTG2, Q9NY99): 3.62
pKd (TX1BP3, O14907): 4.02

B4: TNRC6B, Q9UPQ9 (peptide)
chain: DLLGGGSDSI
pKd (APBA1_1, Q02410): below the threshold
pKd (APBA2_1, Q99767): below the threshold
pKd (APBA2_2, Q99767): below the threshold
pKd (ARHGEF12, Q9NZN5-2): 3.71
pKd (DLG1_3, Q12959): below the threshold
pKd (DLG3_1, Q92796): below the threshold
pKd (DLG3_2, Q92796): 3.99
pKd (FRMPD3, Q5JV73): below the threshold
pKd (GRASP, Q7Z6J2): below the threshold
pKd (GRIP2_7, Q9C0E4): below the threshold
pKd (HTRA2, O43464): below the threshold
pKd (Inadl_10, Q8NI35): below the threshold
pKd (Inadl_9, Q8NI35): below the threshold
pKd (LIMK2, P53671): below the threshold
pKd (LIN7A, O14910): below the threshold
pKd (LIN7C, Q9NUP9): 3.48
pKd (LNX1_1, Q8TBB1): 3.76
pKd (LNX1_2, Q8TBB1): below the threshold
pKd (MAGI2_6, Q86UL8): below the threshold
pKd (MAGI3_2, Q5TCQ9): below the threshold
pKd (PARD3B_1, Q8TEW8): below the threshold
pKd (PCLO, Q9Y6V0): below the threshold
pKd (RAPGEF6, Q8TEU7): below the threshold
pKd (SNTG2, Q9NY99): below the threshold
pKd (TX1BP3, O14907): below the threshold

B5: SORCS3, Q9UPU3 (peptide)
chain: TKEIPNCTSV
pKd (APBA1_1, Q02410): below the threshold
pKd (APBA2_1, Q99767): below the threshold
pKd (APBA2_2, Q99767): below the threshold
pKd (ARHGEF12, Q9NZN5-2): 4.54
pKd (DLG1_3, Q12959): 4.14
pKd (DLG3_1, Q92796): 3.64
pKd (DLG3_2, Q92796): 4.22
pKd (FRMPD3, Q5JV73): below the threshold
pKd (GRASP, Q7Z6J2): 4.74
pKd (GRIP2_7, Q9C0E4): below the threshold
pKd (HTRA2, O43464): below the threshold
pKd (Inadl_10, Q8NI35): 3.95
pKd (Inadl_9, Q8NI35): 3.7
pKd (LIMK2, P53671): below the threshold
pKd (LIN7A, O14910): below the threshold
pKd (LIN7C, Q9NUP9): below the threshold
pKd (LNX1_1, Q8TBB1): 3.75
pKd (LNX1_2, Q8TBB1): 3.78
pKd (MAGI2_6, Q86UL8): 4.43
pKd (MAGI3_2, Q5TCQ9): 4.67
pKd (PARD3B_1, Q8TEW8): below the threshold
pKd (PCLO, Q9Y6V0): below the threshold
pKd (RAPGEF6, Q8TEU7): below the threshold
pKd (SNTG2, Q9NY99): 3.84
pKd (TX1BP3, O14907): 4.47

B6: PRLHR, P49683 (peptide)
chain: GQNMTVSVVI
pKd (APBA1_1, Q02410): below the threshold
pKd (APBA2_1, Q99767): below the threshold
pKd (APBA2_2, Q99767): below the threshold
pKd (ARHGEF12, Q9NZN5-2): 4.13
pKd (DLG1_3, Q12959): below the threshold
pKd (DLG3_1, Q92796): below the threshold
pKd (DLG3_2, Q92796): 4.31
pKd (FRMPD3, Q5JV73): below the threshold
pKd (GRASP, Q7Z6J2): below the threshold
pKd (GRIP2_7, Q9C0E4): below the threshold
pKd (HTRA2, O43464): below the threshold
pKd (Inadl_10, Q8NI35): below the threshold
pKd (Inadl_9, Q8NI35): below the threshold
pKd (LIMK2, P53671): below the threshold
pKd (LIN7A, O14910): below the threshold
pKd (LIN7C, Q9NUP9): below the threshold
pKd (LNX1_1, Q8TBB1): 3.47
pKd (LNX1_2, Q8TBB1): 3.54
pKd (MAGI2_6, Q86UL8): below the threshold
pKd (MAGI3_2, Q5TCQ9): below the threshold
pKd (PARD3B_1, Q8TEW8): 4.86
pKd (PCLO, Q9Y6V0): below the threshold
pKd (RAPGEF6, Q8TEU7): below the threshold
pKd (SNTG2, Q9NY99): below the threshold
pKd (TX1BP3, O14907): below the threshold
